Legend:
CD3 on human PBMC [1] = target: T1, CD3 on human PBMC (human, UniProt P07766 23-207); experiment: cell-based or functional assay
CD3 on human PBMC [2] = target: T1, CD3 on human PBMC; experiment: cell-based or functional assay; remark: listed apart in the source

T1 sequence (P07766 23-207): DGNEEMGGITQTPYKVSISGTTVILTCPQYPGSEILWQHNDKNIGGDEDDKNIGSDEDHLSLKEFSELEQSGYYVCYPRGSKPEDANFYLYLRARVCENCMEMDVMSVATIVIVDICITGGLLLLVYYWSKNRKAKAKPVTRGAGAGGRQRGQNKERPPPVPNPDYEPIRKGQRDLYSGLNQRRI

B1: MMP9-digested L4-G3A (bispecific antibody, not shown: small tags and cut ends)
heavy: EVKLLESGGGLVQPKGSLKLSCAASGFTFNTYAMNWVRQAPGKGLEWVARIRSKYNNYATYYADSVKDRFTISRDDSQSILYLQMNNLKTEDTAMYYCVRHGNFGNSYVSWFAYWGQGTLVTVSS
light: QAVVTQESALTTSPGETVTLTCRSSTGAVTTSNYANWVQEKPDHLFTGLIGGTNKRAPGVPARFSGSLIGDKAALTITGAQTEDEAIYFCALWYSNLWVFGGGTKVEIK
chain: EVQLVESGGGFVQAGESLTLSCTSSTLTFTPYRMAWYRQAPGKQRDLVADISSGDGRTTNYADFAKGRFTISRDNIKNTVFLRMTNLKPEDTAVYYCNTFVSFVGIARSWGQGTQVTVSSESKYGPPCPPCPAPEAAGGPSVFLFPPKPKDTLMISRTPEVTCVVVDVSQEDPEVQFNWYVDGVEVHNAKTKPREEQFNSTYRVVSVLTVLHQDWLNGKEYKCKVSNKGLPSSIEKTISKAKGQPREPQVCTLPPSQEEMTKNQVSLSCAVKGFYPSDIAVEWESNGQPENNYKTTPPVLDSDGSFFLVSRLTVDKSRWQEGNVFSCSVMHEALHNRFTQKSLSLSL
For B1, the “killing EC50 of MMP9-digested M-TCE against that of unmasked TCE SP34-CEA” value (CD3 on human PBMC [1]) was roughly 10 fold and the “EC50 of M-TCE-induced killing of HT29 cells in the presence of human PBMC” value (CD3 on human PBMC [2]) was 12 pM.

— US20240409662A1, “ANTIBODY MASKS AND USES THEREOF” (Vibrant Pharma Limited, priority 2021, published 2024)
